# According to the supplement of paper PMC10065799, “High-throughput profiling of sequence recognition by tyrosine kinases and SH2 domains using bacterial peptide display” (eLife, 2023):
# Test system: Fer (mouse)
# Test: phosphorylation enrichment, bacterial display (enrichment ratio); higher = better substrate or ligand; peptides without Tyr show the background
# 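Also: 11-residue human phosphosite peptides and single-mutation variants displayed on the E. coli surface, counted by deep sequencing, each peptide's frequency after selection divided by its frequency in the unselected input library; frequency after pTyr selection over input frequency; kinase dosed for 20-30% of maximal phosphorylation in three min.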
row,Sequence,phosphorylation enrichment
1,MDDKEYFSVHN [MET_Y1234_Y1230D_YF],0.434
2,RNDLDYMDSRR [GAA_Y407_W402R],0.341
3,PELINCHQHNS [BTK_Y361_Y361C],0.56
4,KGVDRYNPENL [EIF3K_Y21_I18V],0.311
5,ANVIRYFPTQA [SLC25A4_Y81],0.547
6,STQAHYRLSAF [ADAMTS9_Y100_S96T],0.386
7,RIVEIYSRSLQ [GCH1_Y175_R178S],0.87
8,WQQQSYLFSGI [CTNNB1_Y30_D32Y_YF],0.398
9,DSKIRYLSADS [TTF1_Y476_E473K],0.368
10,DVFLKYLNFAT [PDE6B_Y212],0.509
11,GIVEEYQLPYY [BMPR1A_Y453],0.66
12,EVESPYEVHDF [GIGYF2_Y1168_YF],12.3
13,NYYDTCIKTCL [IQGAP2_Y1445_Y1445C],1.05
14,LWPIWYRCHRP [MRGPRX1_Y130],0.702
15,MKGDYYRYLAE [YWHAG_Y131],0.501
16,SGGCSYGSGGG [KRT1_Y539_G537C],0.462
17,EYGSGYPNDPK [RNASEH2A_Y210_D205E],0.505
18,FLLTVYSIFSK [SGCE_Y38],0.594
19,DNQFAYLKAII [HNF4A_Y288_E285Q_YF],0.592
20,IVAEFYDNLPH [DEGS1_Y284_A280V_YF],0.978
21,ENGPYYASYPP [GDAP2_Y488_T489A],1.29
22,ELAKFYKLHHI [AK7_Y391_N389K_YF],0.462
23,DRLAVYIDRVS [LMNA_Y45_R50S],0.397
24,LKLIQYHLIQQ [AKAP4_Y554_T557I],0.544
25,KGNMYYENSYA [EGFR_Y113_R108K],1.23
26,KTDKKYLMIKE [BAG3_Y451_E455K],0.373
27,YRQLPYCPSVE [CTNND2_Y508_Q507P],0.804
28,AAVLNYKAWRD [GRIN2A_Y737_G740W],0.338
29,RFLERDIFNRE [HLA-DPB1_Y57_Y57D_YF],1.01

# Molecular target: Hck (UniProt P08631)
# Test: as above
# Hck, sequence (P08631 whole entry, looked up): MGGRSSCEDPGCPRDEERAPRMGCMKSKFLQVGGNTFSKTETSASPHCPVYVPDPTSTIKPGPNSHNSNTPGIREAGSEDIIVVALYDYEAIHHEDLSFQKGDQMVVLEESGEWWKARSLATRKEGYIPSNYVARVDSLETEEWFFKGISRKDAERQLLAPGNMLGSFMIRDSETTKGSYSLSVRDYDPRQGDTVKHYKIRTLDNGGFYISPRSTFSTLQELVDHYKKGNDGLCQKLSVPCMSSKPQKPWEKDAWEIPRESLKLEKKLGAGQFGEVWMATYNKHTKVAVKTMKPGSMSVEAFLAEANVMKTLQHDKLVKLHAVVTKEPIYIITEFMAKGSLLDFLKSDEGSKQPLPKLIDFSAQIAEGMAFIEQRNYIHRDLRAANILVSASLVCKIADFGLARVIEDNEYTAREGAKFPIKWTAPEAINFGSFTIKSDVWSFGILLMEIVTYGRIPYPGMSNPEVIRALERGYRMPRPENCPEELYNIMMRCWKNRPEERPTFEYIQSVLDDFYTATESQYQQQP
row,Sequence,phosphorylation enrichment
1,MDDKEYFSVHN [MET_Y1234_Y1230D_YF],0.452
2,RNDLDYMDSRR [GAA_Y407_W402R],0.509
3,PELINCHQHNS [BTK_Y361_Y361C],0.544
4,KGVDRYNPENL [EIF3K_Y21_I18V],0.437
5,ANVIRYFPTQA [SLC25A4_Y81],0.558
6,STQAHYRLSAF [ADAMTS9_Y100_S96T],0.456
7,RIVEIYSRSLQ [GCH1_Y175_R178S],2.61
8,WQQQSYLFSGI [CTNNB1_Y30_D32Y_YF],0.44
9,DSKIRYLSADS [TTF1_Y476_E473K],0.434
10,DVFLKYLNFAT [PDE6B_Y212],0.544
11,GIVEEYQLPYY [BMPR1A_Y453],0.63
12,EVESPYEVHDF [GIGYF2_Y1168_YF],1.44
13,NYYDTCIKTCL [IQGAP2_Y1445_Y1445C],1.51
14,LWPIWYRCHRP [MRGPRX1_Y130],0.699
15,MKGDYYRYLAE [YWHAG_Y131],0.779
16,SGGCSYGSGGG [KRT1_Y539_G537C],0.446
17,EYGSGYPNDPK [RNASEH2A_Y210_D205E],0.593
18,FLLTVYSIFSK [SGCE_Y38],2.3
19,DNQFAYLKAII [HNF4A_Y288_E285Q_YF],0.393
20,IVAEFYDNLPH [DEGS1_Y284_A280V_YF],3.36
21,ENGPYYASYPP [GDAP2_Y488_T489A],3.82
22,ELAKFYKLHHI [AK7_Y391_N389K_YF],0.501
23,DRLAVYIDRVS [LMNA_Y45_R50S],0.503
24,LKLIQYHLIQQ [AKAP4_Y554_T557I],0.659
25,KGNMYYENSYA [EGFR_Y113_R108K],0.561
26,KTDKKYLMIKE [BAG3_Y451_E455K],0.368
27,YRQLPYCPSVE [CTNND2_Y508_Q507P],1.09
28,AAVLNYKAWRD [GRIN2A_Y737_G740W],0.436
29,RFLERDIFNRE [HLA-DPB1_Y57_Y57D_YF],0.771
